One block for each substance: values may come before it.
Tests used:
[1] = target: DNMT3A2 D876A, full-length, purified (human); experiment: SEC + other: mass photometry
[2] = target: DNMT3A2 D876A, full-length, purified (human); experiment: SEC
[3] = target: DNMT3A2 D876A/R882H, full-length, purified (human); experiment: SEC
[4] = target: DNMT3A2 L859F/D876A/R882H, full-length, purified (human); experiment: SEC
[5] = target: DNMT3A2 L859F/R882H, full-length, purified (human); experiment: SEC
[6] = target: DNMT3A2 R882H, full-length, purified (human); experiment: SEC
[7] = target: DNMT3A2 wild type, full-length, purified (human); experiment: SEC + other: mass photometry
[8] = target: DNMT3A2 wild type, full-length, purified (human); experiment: SEC

stoichiometry N [1]: 2
stoichiometry N [2]: 2
Substance: DNMT3A2 D876A, full-length, purified (enzyme)

stoichiometry N [3]: 2
Substance: DNMT3A2 D876A/R882H, full-length, purified (enzyme)

stoichiometry N [4]: 2
Substance: DNMT3A2 L859F/D876A/R882H, full-length, purified (enzyme)

stoichiometry N [5]: 4
Substance: DNMT3A2 L859F/R882H, full-length, purified (enzyme)

stoichiometry N [6]: 4
Substance: DNMT3A2 R882H, full-length, purified (enzyme)

stoichiometry N [7]: 4
stoichiometry N [8]: 4
Substance: DNMT3A2 wild type, full-length, purified (enzyme)
